Experimental data: the nanobody polyreactivity screen of Harvey et al. (2022)

Assay: yeast display, Sf9 membrane polyspecificity reagent, FACS + sequencing; frameworks hold sequencing errors
How it was run: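 Polyreactivity labels are assigned by the sorting gate from which each nanobody was recovered. The gates were low and high (top ~1%), set on anti-HA fluorescence for expression and streptavidin fluorescence for reagent binding. Before sorting, galactose-induced (36–48 hours) yeast display cells were stained for 1 hour at 4 °C with 10% biotinylated, detergent-solubilized Sf9 membrane reagent.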

Sequence	polyreactivity (PSR sort gate)
QDQLVESGGGLVQAGGSLRLSCAASGSTFYTYAMGWYRQEPGKERELVAAISYRGGSSYYAVSVKGRFTISRDNAKYTVYLQMNSLKPEDTAVYYCAAKVSRAGDFWGQGTQVTVSS	low polyreactivity
QVQLVESGGGLVQAGGSLRLICDASGRILTGNAMGWYRQAPGKERELVAAISYNGGRTYYADSVKGRFTISRDNAKNTVYLQMNSLKPEDTAVYYCNVVRRQLQTSHPYGYWGQGTQVTVSS	low polyreactivity
QVQLVESGGGLVQAGGSILLICSASGGNFYVYSMGWYRQAPGKERELVAAIRYSGGSTCYADSVKGRFTISRDNAKNTVYLLMNSLKTEYTAVYYCATVGWPFYPARDYDYSGQGTQVTVSS	low polyreactivity
QVQLVESGGGLVQAGGSLRLSCAASGRTLTRYTMGWYRQAPGKERELVATISRSGGNTHYADSVKGRFTISRDNAKNTVYLQMNSLKPEDTAVYYCNAVRYALYGYDYWGQGTQVTVSS	high polyreactivity
QVQLVESGGGLVQAGGSLRLSCAASGSIFDLNAMGWYRQAPGKERELVAAISSGGGTYYADSVKGRFTISRDNAKNTVYLQMNSLKPEDTAVYYCNRVTRWTYNYWGQGTQVTVSS	high polyreactivity
QVQLVESGGGLVQAGGSLRLSCAASGRIFPLYAMGWYRQAPGKERELVADISVTGTSTYYADSVKGRFTISRDNAKNTVYLQMNSLKPEDTAVYYCAADLWAYGPLWRWSRADYDYWGQGTQVTVSS	low polyreactivity
QVQLVESGGGLVQAGGSLRLSCAGSGIIFSRYAMGWYRQAPGKERELVAAISSSGGTTYYADSVKGRFTISRDNAKNTVYLQMNSQKPEDTAVYYCYAPAFYKYKSFYAHSGYDYWGQGTQVTVSS	high polyreactivity
QVQLVESGGGLVQAGGSLRLSCAASGSTFYTNAMGWYIQAPGKERELVAAISRGGITYYADSVKGRFTISRDNAKNTVYLQMNSLKPEDTAVYYCNTQIVTEYDYWGQDTQVTVSS	low polyreactivity
QVQLVESGGGLVQAGGSLRLSCAASGSTFSRYTMGWYRQAPGKERELVAGISGIGGSTDYADSVKGRFTISRDNAKNTVYLQMNSLKPEDTAVYYCNAEYTASYSRGFWRYYYPFEYWGQGTQVTVSS	high polyreactivity
QVQLVESGGGLVQAGGSLRVSCAASGGTFGNNDMGWYRQAPGKEWELFAAIRAAGTTYYADSVKGRFTISRDNAKNTVYLQMNSLKPEDTAVYYCIADTTGYWSYGFQYYGEDYWGQGTQVTVSS	low polyreactivity
QVQLVESGGGLVQAGGSLRLSCAASGRIFYDNAMGWYRQAPGKERELVAAISYSGDSTYYADSVKGRFTISRDNAKNTVYVQMNSLKPEDTAVYYCAAVYISQGAFAYDYWGQGTQVTVSS	low polyreactivity
QVQLVESRGGLVQAGGSLRLSCAASGSIFGWYAMGWYRPAPGKERELVAAINWSGGRTYYADSVKGRFTISRDNAKNTVYLQMNRLKPEDTAVYYCNKVVPGYSAPKYDYWGQGTQVTVSS	high polyreactivity
QVQLVESGGGLVQAGGSLRLSCAASGGTFAVYAMGWYRQAPGKEREWVAAIDSGGRTNYADSVKGRFTISRDNAKNTVYLQMNSLKPEDTAVYYCAADGGGQYVRYDYWGQGTQVTVSS	high polyreactivity
QVQLVESGGGLVQAGGSLRLSCAASGFIFIRYAMGWYRQAPGKERELVAAINGGGSSTYYADSVKGRFTISRDNAKNTVYLQMNSLKPEDTAVYYCAADTDSWWYYLYYGDGFDYWGQGTQVTVSS	high polyreactivity
QVQLVESGGGLVQAGGSLRLSCAASGSTFFKYAMGWYRPAPRKERELVAAISYSGGSTYYADSVKGRFTISRDNAKNTVYLQMNSLKPEDTAVYYCAARVQNRYRPYYYWGQGTQVTVSS	high polyreactivity
QVQLVESGGGLVQAGGSLRLSCAASGRTFSWYTMGWYRQAPGNERELVAVINYSGGSTYYADSVKGRFTISRDNAKNTVYLQMTSLKPEDTAVYYCAARNVVTGYRYDYWGQGTQVTVSS	high polyreactivity
QVQLVESGGGLVQAGGSLRLRCAASGITFSRNAMGAYRQAPGKERELVATITSGGSTNYADSVKGRFTISRDNAKNTVYLQMNSLKPEDTAVYYCNADWNTFISGRSYDYWGQGTQVTVSS	low polyreactivity
QVQLVESGGGLVQAGVSLRLSCAASGSIIWVYAMGWYRQAPGNERELVAAITSGVSTYYADSVKGRFTISRDNAKNTVYFQMNSLKPEETAVYYCAVVGGFRWIRMEYWGQGTQVTVSS	low polyreactivity
QVQLVESGGGLVQAGGSLRLSCAASGSIFLSNAMGWYRQAPGKERELVAAISRRGASTYYADSVKGRFTISRDNAKNTVYFQMNSLKPEDTAVYYCAALSYSAYGYNYWGQGTQVTVSS	high polyreactivity
QVQLVESGGGLVQAGGSLRLSCAASGRTFYPNTMGWYRQAPGKERELVATITRSGGNTYADSVKGRFTISRDNAKNTVYLQMNSLKREDTAVYYCNADQRRSYWLVSQRYDYWGQGTQVTVSS	low polyreactivity
QVQIVESGGGLVQAVGSLRLSCAASGFTFTYNAMGWYRQAPGKERELVAAISSGGRTYYADSVKGRFTISRDNAKNTVYLQMNSLKPEDTAVYYCNADPDQYTLRSITNDEDYWGQGTQVTVSS	low polyreactivity
QVQLVESGGGLVQAAGSLRLSCAASGTTFNRFFMGWYREAPGTERELVAANGGRTYYADSVKGRFTISRDNAKKSVYFQRNSLKPEDTAVYYCNARSYKHPYYRFDYWGQGTEVTVSS	high polyreactivity

Sequence	polyreactivity (PSR sort gate)
QVQLVESGGGLVQAGGSLRLSCAPSGSIFDVNAMGWYRQSPGKESELVAAISDSGGSTYYADSVKGRFTISRDNAKNTVYLQMNSLKPEDTAVYYCNADWSWYNYYEFDYWGQGTQVTVSS	low polyreactivity
QVQLVESGGGLVQAGGSLRLSCAASGRIFFWYAMGWYRQAPGKERELVASINWSGVSTYYADSVKGRFTISRDNAKNTVYLQMNSLKPEDTAVYYCNRVRGLYWQRHGYWGQGTQVTVSS	high polyreactivity
QDQLVESGGGLVQAGGSLRLSCAASGSTLARYGMGWYRQAPGKERELVAAISYSGGRTYYADSVKGRFTISRDNAKNTVYLQMNSLKPEDTAVYYCAARRVYVPRGPIEFYYWGQGTQVTVSS	high polyreactivity
QVQLVESGGGLVQAGGSLRLSCAASGRTLDSNAMGWYRQAPGKERELVAAISSAGSTNYADSVKGRFTISRDNAKNTVYLQMNRLQPEDTAVYYCAADLIGSHDYWGQGTQVTVSS	low polyreactivity
QDQLVESGGGLVQAGGSLRLSCAASGSIFGAYARGWYRQAPGKERELVAAISGSGTSTYYADSVKGRFTISRDNAKNTVYLQMNSLKPEDTAVYYCAADGTYFYIYLGDRFDYWGQGTQVTVSS	low polyreactivity
QVQLVESGGGLVQAGGSLRLSCAAYGSTFYNNVMGWYRPAPGKERELVAAINSGGRTYYADSVKGRFTISRDNAKNTVYLQMNSLKPEDTAVYYCAVGYGRAGRMDYWGQGTQVTVSS	high polyreactivity
QVQLVESGGGLVQAGGSLRLSCAASGRIFYYYAMGWYRPAPGKERELVAAITSGGRTYYADSVKGRFTISRDNAKNTVYLQMNSLKPEDTAVYYCAAERTYTYLGPGYEYWGQGTQVTVSS	low polyreactivity
QVQLVESGGGLDQAGGSLRLSCAASGSILVSNDMGWYRQAPGKERELVAAISWSGGSTYYADSVKGRFTISRDNAKNTVYLQMNSLKPEDTAVYYCAAGFGFLFARQELDFDYWGQGTQVTVSS	low polyreactivity
QVRLVESGGGLVQAGGSLRLSCAASGRIFGYYTMGWYRQAPGKERELVADNNRDGSTYADSVKGRFTLSRDNAKNTVYLQMNSLKPEDTAVYYCNAQYDSAYGLGFFIGYFSQYDYWGQGTQVTVSS	low polyreactivity
QVQLVESGGGLVQAGGSLRLSCSASGRTFRWYTMGWYRQAPGKEREFVAAITWSGSSTDYADSVKGRFTISRDNAKNTVYFQMNSLKPEDTAVYYCAAENRRRRDDYWGQGTQVTVSS	high polyreactivity
QVQLVESGGGLVQAGGSLRLICAASGRTFAGNAMGWYRQAPGKERELVAAITWSGGSTYYADSVKGRFTISRDNAKNTVYLQMNSLKPEDTAVYYCAADSQPPHELYESIEHESWGQGTQVTVSS	low polyreactivity
QVQLVESGGGLVQAGGSLRLSCAASGSTLATYTMGWYRQAPGKERELVAAISFGGSTYYADSVKGRFTISRDNAKNTVYLQMNSLKPEDTAVYYCAVYGDSYWGASYYSDGYWGQGTQVTVSS	low polyreactivity
QDQLVESRGGLVQAGGSLRVSCAASGLSFGYYAMGWYRQATGKERELVAAISSSGVNTYYADSVKGRFTISRDNPKNTVYLQMNSLIPEDTAVYYCNTVPKPWYSWKYAYDYWGQGTQVTVSS	high polyreactivity
QVQLVESGVGLVQAGGSLRLSCAASGSIFGFYAMGWYRQAPGKERELVAAITSGDSTHYADSVKGRFTISRDNAKNTVYLQMNSLKPEDTAVYYCAASAPYRYYRSAYYYWGQGTQVTVSS	low polyreactivity
QDQLVQSGGGLVQAGGSLRLSCDASGGMFDSNAMGRYRQPPGKERELVAAISDSGGSTYYADSVKGRFTISRDNAKNTVYLQMNSLKPEDTAVYYCAGDSDYHFVNYRFGMDYWGQGTQVTVSS	low polyreactivity
QVQLVESGGGLVQAGGSLRLSCAASGSIFSYYAMGWYRQAPGKERELVAAISLSTSGTHYADSVKGRFTISRDNAKNTVYLQMNSLKPEDTAVYYCAARQGYPVFLYNSRYGYWGQGTQVTVSS	low polyreactivity
QVQLVESGGRLVQAGGSLRLSCAASGSTFYDYAMGWYRQAPGKERELVASIDSGDSTNYADSVKGRFTISRDNAKNTVYLQMNSLKPEDTAVYYCAADYRAPLDYWGQGTQVTVSS	low polyreactivity
QVQLVESGGGLVQAGGSLRLSCAASGLTFGDYVMGWYRQAPGKERELVATITSDGGTTYADSVKGRFTISRDNAKNTVYLQMNSLKPEDTAVYYCAAGVTGPSDDYDYWGQGTQVTVSS	low polyreactivity
QVQLVESGGGLVQAGGSLRLSCAASGRTFAYYAMGWYRQAPGKERELVSTITWSDGSTYADSVKGRFTISRDNAKNTVYLQMNSLKPEDTAVYYCAAQGWSWYWYYFYLFDYWGQGTQVTVSS	high polyreactivity
QVQLVESGGGLVQAGGSLRLSCSASGSIFRRYAMGWYRQAPGKVRELVAVITTDGSTYYADSVKGRFTISRDNAKNTVYLQMHSLKPEDTAVYYCAAEDYVIGYSGYDYWGQGTQVTVSS	low polyreactivity
QVQLQESGGGLVQAGGSLRQSCTASGTIYYTSAMGWYRHAPGKDREFVAAIASGSSTNYADSVKGRFTISRDNAKNTVYLKMNSLKPEVTAVYYCAASERVRNIYQYWGQGTQVSVSS	high polyreactivity
